Biological target: T1, Dystrophin (mouse (endogenous in cardiac and …, UniProt P11531 1-3678))
T1 construct: dystrophin, mouse, the large (427 kDa) full-length form of muscle cells; also called full-length dystrophin; full length dystrophin; source: endogenous, mouse cardiac ventricle and skeletal muscle (quadriceps) lysate
Assay: co-IP; DYS-IP (MANDYS1 cross-linked to protein G magnetic beads) from wild type mouse cardiac muscle lysate, 3 hr at 4°C, Western blot; controls IgG-IP and mdx
Settings: partners not purified

T1 sequence (P11531 whole entry): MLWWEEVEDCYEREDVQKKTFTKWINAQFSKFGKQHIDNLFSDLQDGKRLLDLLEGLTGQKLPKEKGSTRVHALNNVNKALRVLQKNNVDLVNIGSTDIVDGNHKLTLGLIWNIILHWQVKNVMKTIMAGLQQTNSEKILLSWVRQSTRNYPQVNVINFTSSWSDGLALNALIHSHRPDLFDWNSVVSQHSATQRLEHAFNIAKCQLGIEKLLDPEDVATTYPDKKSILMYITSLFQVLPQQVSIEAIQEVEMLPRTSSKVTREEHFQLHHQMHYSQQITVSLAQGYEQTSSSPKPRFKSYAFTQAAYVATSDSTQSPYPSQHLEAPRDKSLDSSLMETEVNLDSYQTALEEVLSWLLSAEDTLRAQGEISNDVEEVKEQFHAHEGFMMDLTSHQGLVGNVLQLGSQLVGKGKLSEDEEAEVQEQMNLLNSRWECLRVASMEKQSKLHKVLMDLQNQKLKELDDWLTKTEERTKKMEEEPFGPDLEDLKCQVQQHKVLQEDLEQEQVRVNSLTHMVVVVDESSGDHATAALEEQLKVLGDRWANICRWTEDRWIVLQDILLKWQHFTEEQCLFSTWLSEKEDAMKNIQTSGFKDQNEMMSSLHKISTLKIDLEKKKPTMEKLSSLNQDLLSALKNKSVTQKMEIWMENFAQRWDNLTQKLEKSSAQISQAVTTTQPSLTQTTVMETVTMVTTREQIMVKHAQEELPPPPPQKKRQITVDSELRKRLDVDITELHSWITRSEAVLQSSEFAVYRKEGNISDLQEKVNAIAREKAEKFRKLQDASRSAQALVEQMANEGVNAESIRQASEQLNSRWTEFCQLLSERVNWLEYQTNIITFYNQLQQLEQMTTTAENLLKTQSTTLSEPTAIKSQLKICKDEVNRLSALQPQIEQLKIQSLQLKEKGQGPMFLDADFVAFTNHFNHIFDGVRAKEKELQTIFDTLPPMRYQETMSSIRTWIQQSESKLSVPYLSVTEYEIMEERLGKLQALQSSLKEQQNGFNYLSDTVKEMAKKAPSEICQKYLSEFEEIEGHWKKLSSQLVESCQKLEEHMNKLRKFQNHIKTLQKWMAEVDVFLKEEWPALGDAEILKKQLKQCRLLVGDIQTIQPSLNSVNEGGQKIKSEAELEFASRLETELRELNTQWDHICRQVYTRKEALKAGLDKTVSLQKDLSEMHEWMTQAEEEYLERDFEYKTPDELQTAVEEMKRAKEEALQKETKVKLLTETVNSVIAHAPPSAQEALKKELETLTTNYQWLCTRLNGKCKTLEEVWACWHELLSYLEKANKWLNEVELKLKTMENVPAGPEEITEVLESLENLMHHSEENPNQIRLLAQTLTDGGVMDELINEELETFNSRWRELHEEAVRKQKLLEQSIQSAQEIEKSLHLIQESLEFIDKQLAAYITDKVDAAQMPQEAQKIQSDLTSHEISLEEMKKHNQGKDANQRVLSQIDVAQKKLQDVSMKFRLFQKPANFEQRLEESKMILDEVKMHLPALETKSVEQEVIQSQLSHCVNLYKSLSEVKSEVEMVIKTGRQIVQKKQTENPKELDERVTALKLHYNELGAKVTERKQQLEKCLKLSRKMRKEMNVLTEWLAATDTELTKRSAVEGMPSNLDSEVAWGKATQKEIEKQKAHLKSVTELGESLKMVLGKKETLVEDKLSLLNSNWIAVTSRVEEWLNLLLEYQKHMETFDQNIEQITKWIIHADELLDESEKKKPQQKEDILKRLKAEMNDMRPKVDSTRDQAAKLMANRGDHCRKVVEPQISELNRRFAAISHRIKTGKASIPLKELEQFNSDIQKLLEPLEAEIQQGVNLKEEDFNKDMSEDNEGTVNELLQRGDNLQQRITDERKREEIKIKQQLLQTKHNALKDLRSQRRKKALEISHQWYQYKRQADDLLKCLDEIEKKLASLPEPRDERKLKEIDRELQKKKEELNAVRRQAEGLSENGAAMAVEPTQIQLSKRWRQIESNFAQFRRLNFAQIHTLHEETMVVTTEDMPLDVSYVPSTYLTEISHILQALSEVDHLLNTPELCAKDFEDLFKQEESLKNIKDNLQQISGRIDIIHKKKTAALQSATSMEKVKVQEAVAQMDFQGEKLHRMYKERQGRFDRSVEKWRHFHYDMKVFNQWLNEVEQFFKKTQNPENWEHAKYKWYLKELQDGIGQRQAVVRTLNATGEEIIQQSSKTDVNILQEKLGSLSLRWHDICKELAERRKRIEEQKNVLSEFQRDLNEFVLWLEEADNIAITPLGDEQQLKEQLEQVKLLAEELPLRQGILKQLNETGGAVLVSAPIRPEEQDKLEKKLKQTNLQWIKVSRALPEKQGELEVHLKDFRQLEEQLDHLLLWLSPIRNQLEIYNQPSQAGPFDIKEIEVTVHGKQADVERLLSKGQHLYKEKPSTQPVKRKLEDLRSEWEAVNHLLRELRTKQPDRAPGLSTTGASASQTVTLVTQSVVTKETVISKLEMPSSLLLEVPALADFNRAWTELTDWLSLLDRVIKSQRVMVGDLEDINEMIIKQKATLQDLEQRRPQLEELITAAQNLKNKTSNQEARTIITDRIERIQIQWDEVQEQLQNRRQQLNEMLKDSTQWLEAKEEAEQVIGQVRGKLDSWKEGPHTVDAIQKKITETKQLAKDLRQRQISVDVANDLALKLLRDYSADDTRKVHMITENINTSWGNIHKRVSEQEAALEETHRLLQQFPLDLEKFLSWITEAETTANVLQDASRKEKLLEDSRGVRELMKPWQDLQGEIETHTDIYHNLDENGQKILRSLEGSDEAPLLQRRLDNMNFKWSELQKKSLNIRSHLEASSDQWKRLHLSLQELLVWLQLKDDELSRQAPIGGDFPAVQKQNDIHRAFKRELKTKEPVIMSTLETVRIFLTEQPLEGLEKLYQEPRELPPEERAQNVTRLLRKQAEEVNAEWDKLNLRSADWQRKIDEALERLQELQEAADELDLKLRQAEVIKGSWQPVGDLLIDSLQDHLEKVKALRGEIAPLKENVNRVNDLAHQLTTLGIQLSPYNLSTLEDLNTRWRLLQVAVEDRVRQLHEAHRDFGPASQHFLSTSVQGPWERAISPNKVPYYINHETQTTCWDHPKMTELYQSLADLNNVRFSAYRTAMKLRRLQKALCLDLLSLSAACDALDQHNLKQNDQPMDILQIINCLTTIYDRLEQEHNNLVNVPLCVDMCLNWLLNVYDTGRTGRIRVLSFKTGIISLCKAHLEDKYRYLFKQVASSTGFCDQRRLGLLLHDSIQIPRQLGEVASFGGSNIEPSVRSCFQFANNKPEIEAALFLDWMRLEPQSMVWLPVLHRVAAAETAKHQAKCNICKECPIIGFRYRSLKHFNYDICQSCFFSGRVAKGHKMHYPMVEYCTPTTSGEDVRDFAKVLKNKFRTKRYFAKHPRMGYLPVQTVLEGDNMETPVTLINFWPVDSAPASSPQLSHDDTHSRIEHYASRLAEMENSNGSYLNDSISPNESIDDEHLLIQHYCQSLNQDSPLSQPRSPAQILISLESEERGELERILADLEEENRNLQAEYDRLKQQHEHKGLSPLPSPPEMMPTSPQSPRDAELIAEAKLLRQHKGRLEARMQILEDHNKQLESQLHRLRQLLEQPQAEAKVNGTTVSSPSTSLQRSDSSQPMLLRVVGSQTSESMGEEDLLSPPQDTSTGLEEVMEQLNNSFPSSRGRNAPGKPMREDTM

| Binder | fold less associated with dystrophin in cardiac than in skeletal muscle DYS-IPs |
| --- | --- |
| α1-dystrobrevin (natural protein, UniProt Q9D2N4 1-746, looked up, α-dystrobrevin splice variant α1, mouse; told apart on blots by molecular weight with a pan α-dystrobrevin antibody; also called DTNA1; source: endogenous, mouse cardiac ventricle and skeletal muscle (quadriceps) lysate) MIEDSGKRGNTMAERRQLFAEMRAQDLDRIRLSTYRTACKLRFVQKKCNLHLVDIWNVIEALRENALNNLDPNIELNVARLEAVLSTIFYQLNKRMPTTHQIHVEQSISLLLNFLLAAFDPEGHGKISVFAVKMALATLCGGKIMDKLRYIFSMISDSSGVMVYGRYDQFLREVLKLPTAVFEGPSFGYTEQSARSCFSQQKKVTLNGFLDTLMSDPPPQCLVWLPLLHRLANVENVFHPVECSYCHSESMMGFRYRCQQCHNYQLCQDCFWRGHAGGSHSNQHQMKEYTSWKSPAKKLTNALSKSLSCASSREPLHPMFPDQPEKPLNLAHIVPPRPVTSMNDTLFSHSVPSSGSPFITRSSPPKDSEVEQNKMLARAAPAFLKGRGIQYSLNVADRLADEHVLIGLYVNMLRNDPPCMLESSNRLDEEHRLIARYAARLAAESSSSQPTQQRSAPDISFTIDANKQQRQLIAELENKNREILQEIQRLRVEHEQASQPTPEKAQQNPTLLAELRLLRQRKDELEQRMSALQESRRELMVQLEGLMKLLKEEELKQGTQGASSPRSSPSHTISRPIPMPIRSASACPTPTHTPQDSLTGVGGDVQEAFAQSSRRNLRSDLLVAADSITNTMSSLVKELNSEVASETESTVDSEFSRPQFEDLAPSPTSEKAFLAQIHSRKPGYIHGGAASTTHGDMVPEDGDPYTQPEDGNYENESVRQLENELQLEEYLKQKLQDEAYQVSLQG | ~5 fold |
| β1-Syntrophin (natural protein, UniProt Q99L88 1-537, looked up, β1-syntrophin, mouse; source: endogenous, mouse cardiac ventricle and skeletal muscle (quadriceps) lysate) MAVAAAAVAAPAGGGGARAQRSGLLEVLVRDRWHKVLVNLSEDALVLSCEEGAAAYNGIGAATNGSFCRGSGTGHPVPGVAQAPDSPAGVRTAFTDLPEQVPESISNQKRGVKVLKQELGGLGISIKGGKENKMPILISKIFKGLAADQTQALYVGDAILSVNGADLRDATHDEAVQALKRAGKEVLLEVKYMREATPYVKKGSPVSEIGWETPPPESPRLGGGSAEPLSSQSFSFHRDRKSIPLKMCYVTRNMTLADPENRQLEIHSPDAKHTVILRSKDSATAQAWFSAIHSNAGDLLTRVVADIREQLGKTGIAGSREIRHLGWLAEKVPGESEKQWKPALVVLTEKDLLIYDSMPRRKEAWFSPVHSYPLLATRLVHSGPGKGSPQAGMDLSFATRTGTKQGIETHLFRAEISRDLSHWTRSIVQGCHNSAELTAEITTACTYRNQECRLTIHYDNGFSISTEPQDGAFPKTIIQSPYEKLKMSSDDGIRMLYLDFGGKEGEIQLDLHSCPKPIVFIIHSFLSAKITRLGLVA | 4 fold |

— PMC3427372, “Proteomic Analysis Reveals New Cardiac-Specific Dystrophin-Associated Proteins” (PLoS ONE, 2012)
